In the RNAGym collection of RNA variant scans (doi:10.1073/pnas.2313332121):

B1: TPR t1 (parent)
chain: GACCAAUCUGCCCUCAGAGCUCGAGAACAUCUUCGGAUGCAGAGGAGGCAGGCUUCGGUGGCGCGAUAGCGCCAACGUCCUCAACCUCCAAUGCAUCCCACCACAUGAUGAUGCCUGAAGAGCCUUGGUUUUUUG

Variants of: B1
Assay: polymerase ribozyme fitness, log enrichment relative to wild type (log ratio); higher = more active; in vitro selection for triplet polymerase activity
Outline: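 In triplicate, a single round of in vitro selection was run on each mutant library, PCR-built and transcribed, covering one subunit of a heterodimeric triplet polymerase ribozyme. Frozen incubation at −7 °C followed annealing with a biotinylated primer, partner subunit and triplets, and extended constructs were then gel-excised, streptavidin-captured and taken through RT-PCR. Fitness is the logarithm of genotype enrichment over wild-type enrichment, from inverse-variance-weighted replicate averages of Illumina-sequenced inputs and outputs. […] only genotypes with ≥10 input reads and ≥1 read per output were kept.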

Variant | polymerase ribozyme fitness (log ratio)
GACCAAUCUGCCCUCAGAGCUCGAGAACAUCUUCGGAUGCAGAGGAGCCAGGCUUCGGUGGCGCGAUAGCGCCAACGUCCUCGACCUCCAAUGCAUCCCACCACAUGAUGAUGCCUGAAGAUCCUUGGUUUUUUG [G48C A83G G122U] | -1.4
GACCAAUCUGCCCUCAGAGCUCGAGAACAUCUUCGGAUGCAGAGGAGCCAGGCUUCGGUGGCGCGAUAGCGCCAACGUCCACAACCUCCAAUGCAUCCCACCACAUGAUGAUGCCUGAAGAGCCUUCGUUUUUUG [G48C U81A G127C] | -3.51
GACCAAUCUGCCCUCAGAGCUCGAGAACAUCUUCGGAUGCAGAGGAGCCAGGCUUUGGUGGCGCGAUAGCGCCAACGUCCUCAACCUCCAAUGCAUCCCAACACAUGAUGACGCCUGAAGAGCCUUGGUUUUUUC [G48C C56U C101A U112C G135C] | -0.346
GACCAAUCUGCCCUCAGAGCUCGAGAACAUCUUCGGAUGCAGAGGAGCCAGGCUUCGGUGGCGCGAUAGCGCCAACGUCCUCAACCUCCAAUGCAUCCCACCACAUGAUGAUGCCGGAAGAGCCUUGGUUUUUUG [G48C U116G] | -3.09
GACCAAUCUGCCCUCAGAGCUCGAGAACAUCUUCGGAUGCAGAGGAGCCAGGCUUCGGUGGCGCGAUAGCGCCAACGUACUCAACCUCCAAUGCAUCCCACCACAUGAUGAUGCCUGAAGAGCCUUGGUUUUUUG [G48C C79A] | -3.15
GACCAAUCUGCCCUCAGAGCUCGAGAACAUCUUCGGAUGCAGAGGAGCCAGGCUUCGGUGGCGCGAUAGCGCCAACGUCCUCUACCACCAAUGCAUCCCACCACAUGAUGAUGCCUGAAGAGCCUUGGUUUUUUG [G48C A83U U87A] | -0.806
GACCAAUCUGCCCUCAGAGCUCGAGAACAUCUUCGGAUGCAGAGGAGCCAGGCUUCGGUGGCGCGAUAGCGCCAACGACCUCAACCUCCAAUGCAUCCCACCACAUGAUGAUGCCUGAAGAGCCUUGGUUUUUUG [G48C U78A] | -0.274
GACCAAUCUGCCCUCAGAGCUCGAGAACAUCUUCGGAUGCAGAGGAGACAGGCUUCGGUGGCGCGAUAGCGCCAACGUCCUCAACCUCCAAUGCAUCCCACCACACGAUGAUGCCUGAAGAGCCUUGGUUUUUUG [G48A U106C] | 0.21
GACCAAUCUGCCCUCAGAGCUCGAGAACAUCUUCGGAUGCAGAGGAGCCAGGCUUCGGUGGCGCGAUAGCGCCAACGUCCUCAACCUCCAAUGCAUCCCACCACAUGAUGAUGCCUGAAGAGCCUUGGUUUUUUG [G48C] | -0.943
GACCAAUCUGCCCUCAGAGCUCGAGAACAUCUUCGGAUGCAGAGGAGCCAGGCUUCGGUGGCGCGAUAGCGCCAACGUCCUCAACCUCCAAUGCAUCCCACCACAUGAUGAUGCCUGAAGAGCCUUGAUUUUUUG [G48C G128A] | -3.43
GACCAAUCUGCCCUCAGAGCUCGAGAACAUCUUCGGAUGCAGAGGAGACAGGCAUCGGUGGCGCGAUAGCGCCAACGUCCUCAUCCUCCAAUGCAUCCCACCACAUGAUGAUGCCUGAAGAGCCUUGGAUUUUUG [G48A U54A A84U U129A] | -1.42
GACCAAUCUGCCCUCAGAGCUCGAGAACAUCUUCGGAUGCAGAGGAGACAGGCUUCGGUGGCGCGAUAGCGCCAACGUCCUCAACCUCCAAUGCAUCCCACCACAUGAUGAUGCCUGAAGACGCUUAGUUUUUUG [G48A G122C C123G G127A] | -2.37
GACCAAUCUGCCCUCAGAGCUCGAGAACAUCUUCGGAUGCAGAGGAGCCAGGCUUCGGUGGCGCGAUAGCACCAACGUCCUCAACCUCCAAUGCAUCCCACCACAUGGUGACGCCUUAAGAGCCUUGGUUUUUUG [G48C G71A A108G U112C G117U] | -6.18
GACCAAUCUGCCCUCAGAGCUCGAGAACAUCUUCGGAUGCAGAGGAGCCAGGCUUAGGUGGCGCGAUAGCGACAACGACCUCAACCUCCAAUGCAUCCCACCACAUGAUGAUGCCUGAAGAGCCUUGGUUUUUUG [G48C C56A C72A U78A] | -1.06
GACCAAUCUGCCCUCAGAGCUCGAGAACAUCUUCGGAUGCAGAGGAGACAGGCUUCGGUGGCGCGAUAGCGCCAACGUCCUCAACCUCCAAUGCAUCCCACCACAUGAUGAUGCCUUAAGAGCCUUGGUUUUUUG [G48A G117U] | -2.2
GACCAAUCUGCCCUCAGAGCUCGAGAACAUCUUCGGAUGCAGAGGAGCCAGGCUUCGGUUGCGCGAUAGCGCCAACGUCCUCAACCUCCAAUGCAUCCCACCACAUGAUGAUGCCUGAAGAGCCUUGGUUUUUUG [G48C G60U] | -2.22
GACCAAUCUGCCCUCAGAGCUCGAGAACAUCUUCGGAUGCAGAGGAGCCAGGCUUCGGUGGCGCGAUAGCGCGAACGUCCUCAACCUCCAAUACAUCCCACCACAUGAUGAUGCCUGAAGAGCAUUGGUUUUUUG [G48C C73G G93A C124A] | -1.39
GACCAAUCUGCCCUCAGAGCUCGAGAACAUCUUCGGAUGCAGAGGAGCCAGGCUUCGGUGGCGCGAUAGCGCCAACGUCCUCAACCUCCAAUGCGUCCCACCACAUGAUGAUGCCUGAAGAGCCUUGGCUUUUUG [G48C A95G U129C] | -1.6
GACCAAUCUGCCCUCAGAGCUCGAGAACAUCUUCGGAUGCAGAGGAGCCAGACUUCGGUGGCGCGAUAGCGCCAACGUCCUCAACCUCCAAUGCAUCCCACAACAUGAUGCUGCCUGAUGAGCCUUGGUUUUUUG [G48C G52A C102A A111C A119U] | -4.33
GACCAAUCUGCCCUCAGAGCUCGAGAACAUCUUCGGAUGCAGAGGAGACAGGCUUCGGCGGCGCGAUAGCGCCAACGUCCUAAACCUCCAAUCCAUCCCACCACAUGAUGAUGCCGGAAGAGCCUUGGUUAUUUG [G48A U59C C82A G93C U116G U131A] | -4.51
GACCAAUCUGCCCUCAGAGCUCGAGAACAUCUUCGGAUGCAGAGGAGCAAGGCUCCGGUGACGCGAUAGCGCCAACGUCCUCAACCUCCAAUGCGUCCCACCACAUGAUAAUGCCUGAAGAGCCUUGGUUUUUUG [G48C C49A U55C G61A A95G G110A] | -2.85

Variant | polymerase ribozyme fitness (log ratio)
GACCAAUCUGCCCUCAGAGCUCGAGAACAUCUUCGGAUGCAGAGGAGCCAGGCUUCGGUGGCGCGAUAGCGGCAACGUCCUCAACCUCCAAUGCAUCCCACCACAUGAUGAUGCCUGAAGAGCCUUGGUUUUUUG [G48C C72G] | -0.77
GACCAAUCUGCCCUCAGAGCUCGAGAACAUCUUCGGAUGCAGAGGAGCCAGGCUUCGGUGGCGCGAUAGCGCCAACGUCCUCAAUCUCCAAUGCAUCCCACCACAUGAUGAUGCCUUAAGAGCCUUGGUUUUUUG [G48C C85U G117U] | -3.32
GACCAAUCUGCCCUCAGAGCUCGAGAACAUCUUCGGAUGCAGAGGAGCGAGGCUUCGGUGGCGCGAUAGCGUCAACGUCCUCAACCUCCAAUGCAUUCCACCACAUGAUGAUGCCGGAAGAGCCUUGGUUUUUUG [G48C C49G C72U C97U U116G] | -2.86
GACCAAUCUGCCCUCAGAGCUCGAGAACAUCUUCGGAUGCAGAGGAGCCAGGCUUCGGUGGCGCGAUAGCGCCAACGUCCUCUACCUCCAAUGCAUCCCACCACAUGGUGAUGCCUGAAGAGCCUUGGUUUUUUG [G48C A83U A108G] | -1.66
GACCAAUCUGCCCUCAGAGCUCGAGAACAUCUUCGGAUGCAGAGGAGCCAGGCUUCGGUGGCGCGAUAGCGCCAACGUCCUCAACCUCCAAUGCAUCCCACCACAUGAUGAUGCAUGAAGAGCCUUGGUUUUUUG [G48C C115A] | -1.84
GACCAAUCUGCCCUCAGAGCUCGAGAACAUCUUCGGAUGCAGAGGAGACAGGCUUCGGUGGCGCGAUAGCGCCAACGUCCUCAACCUCCAAUGCAACCCACCAUAUGAUGAUGCCUGAAGAGCCUUGGUUAUUUG [G48A U96A C104U U131A] | -1.66
GACCAAUCUGCCCUCAGAGCUCGAGAACAUCUUCGGAUGCAGAGGAGCCAGGCUUCGGUGGCGCGAUAGUGCCAACGUCCUCAACCUCCAAUGCAUCCCACCACAUGAUGAUGCCUGAAGAGCCUUGGUUUUUUG [G48C C70U] | -0.829
GACCAAUCUGCCCUCAGAGCUCGAGAACAUCUUCGGAUGCAGAGGAGCCAGGCUGCGGUGGAGCGAUAGCGCCAACGUUCUCACGCUCCAAUUCAUCCCACCACAUGAUGAUGCCUGAAGAGCAUUGGUUUUUUG [G48C U55G C62A C79U A84C C85G G93U C124A] | -0.918
GACCAAUCUGCCCUCAGAGCUCGAGAACAUCUUCGGAUGCAGAGGAGCCAGGCUUCGGUGGCGCGAUAGCGGCAACGUCCUCAACCUCCAAUGCAUCCCACCAAAUGAUGAUGCCUGAACAGCCUUGAUUUUUUG [G48C C72G C104A G120C G128A] | -4.3
GACCAAUCUGCCCUCAGAGCUCGAGAACAUCUUCGGAUGCAGAGGAGACAGGCUUCGGUGGCGCGAUAGCGCCAACGUCCUCAACCUCCAAAGCAUCCCACCACAAGAUGAUGCCUGAAGAGCCUUGGUUUUUUG [G48A U92A U106A] | -3.9
GACCAAUCUGCCCUCAGAGCUCGAGAACAUCUUCGGAUGCAGAGGAGCCAGGCUUCGGUGGCGCGAUAGCGCCAACAUCCUCAACCUCCAAUGCAUCCCACCACAUGAUGAUGCCUGAAGAGCCUUGGUGUUUUG [G48C G77A U130G] | -2.05
GACCAAUCUGCCCUCAGAGCUCGAGAACAUCUUCGGAUGCAGAGGAGACAGGCUUCGGUGGCGCGAUAGCGCCAACGUCCUCAACCUCCAAUGCAUCCCACCACAUGAUGAUACCUGAAGAGCCUUGGUUUUUUG [G48A G113A] | -1.61
GACCAAUCUGCCCUCAGAGCUCGAGAACAUCUUCGGAUGCAGAGGAGCCAGGCUUCGGUGGCGCGAUAUCGCCAACGUCCUCAACCUCCAAUGCAUCCCACCACAUGAUGAUGCCUGAAGAGCCUUGGUUUUUUG [G48C G69U] | -0.209
GACCAAUCUGCCCUCAGAGCUCGAGAACAUCUUCGGAUGCAGAGGAGACAGGCGUCGGUGGCGCGAUAGCGCCAACGUCCUCAAUCUCCAAUGCAUCCCACCACAUGAUGAUGCCUGAAGAGCCUUGGUUUUUUG [G48A U54G C85U] | -0.681
GACCAAUCUGCCCUCAGAGCUCGAGAACAUCUUCGGAUGCAGAGGAGACAGGCUUCGGUGGCGCGAUAGCGCCAACGUCCUCAACCUCCAAUGCAUCCCACCACAUGAUGAUGCCUGAAGAGCCUUCGUUUUUUG [G48A G127C] | -2.52
GACCAAUCUGCCCUCAGAGCUCGAGAACAUCUUCGGAUGCAGAGGAGCAAGGCUUUGGUGGCGCGAUAGCGCCAACGUCCUCAACCUCCAAUUCAUCCCACCACAUGAUGAUGCCUGAAGAGCCUUGGUUUUUUG [G48C C49A C56U G93U] | -1.8
GACCAAUCUGCCCUCAGAGCUCGAGAACAUCUUCGGAUGCAGAGGAGACAGGCUUCGGUGGCGCGAUAGCGCCAACUUCCUCAACCUCCAAUGCAUCCCACCACAUGAUGAUGCCUGAAGAGCCUUGGUUUUUUG [G48A G77U] | -2.11
GACCAAUCUGCCCUCAGAGCUCGAGAACAUCUUCGGAUGCAGAGGAGACAGGCUUCGGUGGCGCGAUAGCGCCAACGUCCUCAACCUCCAAUGCAUCCCACCACAUGAUGAUGCCUGAAGAGCCUUGGUUUAUUG [G48A U132A] | -0.715
GACCAAUCUGCCCUCAGAGCUCGAGAACAUCUUCGGAUGCAGAGGAGCCAGGCUUCGGUGGCGCGAUAGCGCCAACGCCCUCAACCUCCAAUGCAUCCCACCACAUGAUGAUGCCUGAACAGCGUUGGUUUUUUG [G48C U78C G120C C124G] | 0.298
GACCAAUCUGCCCUCAGAGCUCGAGAACAUCUUCGGAUGCAGAGGAGCCAGGCUUCGGUGGCGCGAUAGCGCCAACGUCCUCAACCUCCAAUGCAUCCCACCACAGGAUGAUGCCUGAAGAGCCUUGGUUUUUUG [G48C U106G] | -1.5
GACCAAUCUGCCCUCAGAGCUCGAGAACAUCUUCGGAUGCAGAGGAGCCAGGCUUCGGUGGCGCGAUAGCGCCAACGUCCUCAACCUCCAAUGCAUCCCACCACACGAUGAUGCCUGAAGAGCCUUGGUUUUUUG [G48C U106C] | -1
